{"source": "the RNAGym collection of RNA variant scans (doi:10.1021/acssynbio.7b00057)", "parents": {"B1": {"name": "Pistol ribozyme (parent)", "chain": "GGGUCGUUGUUCCAUAAUCGCGUGGAUAUGGCACGCAAGUUUCUACCGGGCACCGUAAAUGUCCGACUGGAGCCGUUCGGGCGGCUAUAAACAGACCUCAGGCCCGAAGCGUGGCGGCACCUGCCGCCGGUGGUAAAAAAGAUCGGAAGAGCACACGUCU"}}}
{"variants_of": "B1", "assay": "aptazyme ON/OFF ratio, guanine; higher = stronger switching; co-transcriptional cleavage with and without guanine"}
{"variant": "U7C G9C U10G U11A C12U", "aptazyme ON/OFF ratio": 1.15}
{"variant": "U8A G9A C12A C13U", "aptazyme ON/OFF ratio": 1.19}
{"variant": "U7C U8C G9C U10C U11G C12A C13A", "aptazyme ON/OFF ratio": 1.08}
{"variant": "U7A U8C G9C U11G C12G C13G", "aptazyme ON/OFF ratio": 1.12}
{"variant": "U7G U8C G9C U10G U11C C12U C13U", "aptazyme ON/OFF ratio": 1.4}
{"variant": "U7C U8A G9U C12A C13G", "aptazyme ON/OFF ratio": 1.18}
{"variant": "U10C U11A C13U", "aptazyme ON/OFF ratio": 1.23}
{"variant": "U10G U11C C12G C13G", "aptazyme ON/OFF ratio": 1.14}
{"variant": "U7A U8A G9U U10G U11G C12A C13U", "aptazyme ON/OFF ratio": 1.17}
{"variant": "U7G G9A U10C U11C C12U C13G", "aptazyme ON/OFF ratio": 1.04}
{"variant": "U7C U8C C12G C13G", "aptazyme ON/OFF ratio": 1.14}
{"variant": "U7G U8G G9A U10G U11A C12A C13U", "aptazyme ON/OFF ratio": 1.18}
{"variant": "U7C U8C G9C U11G C12U C13G", "aptazyme ON/OFF ratio": 1.07}
{"variant": "U8G G9A U10C U11A C12U C13U", "aptazyme ON/OFF ratio": 1.05}
{"variant": "U7A U8A G9C U10C U11G C13A", "aptazyme ON/OFF ratio": 1.06}
{"variant": "U7G U8C G9A U10A U11G C12U C13U", "aptazyme ON/OFF ratio": 1.21}
{"variant": "U7G U8A G9C U10C C12U C13A", "aptazyme ON/OFF ratio": 1.04}
{"variant": "U8C G9U U10A U11A C13U", "aptazyme ON/OFF ratio": 1.22}
{"variant": "U7C U8G G9A U10A U11C C13G", "aptazyme ON/OFF ratio": 1.02}
{"variant": "U7G G9C U10G U11A C12U", "aptazyme ON/OFF ratio": 1.19}
{"variant": "U8G G9C U10G U11G C12A C13G", "aptazyme ON/OFF ratio": 1.15}
{"variant": "U7C G9A U10G", "aptazyme ON/OFF ratio": 1.42}
{"variant": "U7G U8G U10C U11G C12U C13G", "aptazyme ON/OFF ratio": 1.52}
{"variant": "U7A G9A U10C U11C C12G C13G", "aptazyme ON/OFF ratio": 1.09}
{"variant": "U7C U8G G9U U10G U11C C12G C13U", "aptazyme ON/OFF ratio": 1.08}
{"variant": "U7C U8G G9U U10G U11C C12G C13G", "aptazyme ON/OFF ratio": 1.07}
{"variant": "U8C G9A U10C U11A C12G C13A", "aptazyme ON/OFF ratio": 1.23}
{"variant": "U7C U8C G9U U10C U11G C12A C13A", "aptazyme ON/OFF ratio": 1.11}
{"variant": "U7C U8G U11C C12U C13A", "aptazyme ON/OFF ratio": 1.35}
{"variant": "U7A U8A U10A U11G C13A", "aptazyme ON/OFF ratio": 1.16}
{"variant": "U7G U10A U11G C12A", "aptazyme ON/OFF ratio": 1.13}
{"variant": "U8G C12A C13A", "aptazyme ON/OFF ratio": 1.25}
{"variant": "U7G U8A G9C U10A U11C C12G C13G", "aptazyme ON/OFF ratio": 1.04}
{"variant": "U7G U8G G9C U11G C12A C13G", "aptazyme ON/OFF ratio": 1.23}
{"variant": "U7G U8C G9C U10A C13U", "aptazyme ON/OFF ratio": 1.07}
{"variant": "U7C U8A G9C U11C C12A C13G", "aptazyme ON/OFF ratio": 1.07}
{"variant": "U7C U11G C12G C13A", "aptazyme ON/OFF ratio": 1.14}
{"variant": "U8G G9C U10C U11A C12G", "aptazyme ON/OFF ratio": 1.06}
{"variant": "U8G G9A U11A", "aptazyme ON/OFF ratio": 1.59}
{"variant": "U7C U8C G9U U10A U11A C12A", "aptazyme ON/OFF ratio": 1.27}
{"variant": "U7C U8A G9C U10G U11C C12U C13U", "aptazyme ON/OFF ratio": 1.34}
{"variant": "U7G G9C C12G C13A", "aptazyme ON/OFF ratio": 1.3}
{"variant": "U8A U10G U11A C12G C13A", "aptazyme ON/OFF ratio": 1.2}
{"variant": "U7G U8G G9C U10C C12U C13A", "aptazyme ON/OFF ratio": 1.29}
{"variant": "U8A G9A U10G U11C", "aptazyme ON/OFF ratio": 1.05}
{"variant": "U8G G9U U10A C13A", "aptazyme ON/OFF ratio": 1.1}
{"variant": "U7G G9C U11A C12U C13G", "aptazyme ON/OFF ratio": 1.33}
{"variant": "U7A U8G G9A U11A C12U C13G", "aptazyme ON/OFF ratio": 1.28}
{"variant": "U7A U8C G9A U10A U11C C12G C13A", "aptazyme ON/OFF ratio": 1.09}
{"variant": "U8C G9C U10C U11G", "aptazyme ON/OFF ratio": 0.956}
{"variant": "U7G U10G U11A", "aptazyme ON/OFF ratio": 1.21}
{"variant": "U7G G9U U10G C12G C13G", "aptazyme ON/OFF ratio": 1.2}
{"variant": "U7G U8G C12G C13G", "aptazyme ON/OFF ratio": 1.36}
{"variant": "U7C U8A G9U U10A U11A", "aptazyme ON/OFF ratio": 1.38}
{"variant": "U7C U8G G9U U11C C12A", "aptazyme ON/OFF ratio": 1.41}
{"variant": "U7G U8G G9U U10G U11G C12U C13A", "aptazyme ON/OFF ratio": 1.11}
{"variant": "U8C G9U U10A C12A C13A", "aptazyme ON/OFF ratio": 1.17}
{"variant": "U8C G9A U10A U11C C12A C13U", "aptazyme ON/OFF ratio": 1.19}
{"variant": "U7G U8C G9C U10G C13U", "aptazyme ON/OFF ratio": 1.33}
{"variant": "G9A U10A U11A C12U", "aptazyme ON/OFF ratio": 1.68}
{"variant": "U8C G9A U10C U11C C12U C13U", "aptazyme ON/OFF ratio": 1.09}
{"variant": "U7A U8A G9C U10C U11G C12U C13G", "aptazyme ON/OFF ratio": 1.05}
{"variant": "G9U U10G U11G C12A", "aptazyme ON/OFF ratio": 1.75}
{"variant": "U7A U8G U10G U11A C12A C13G", "aptazyme ON/OFF ratio": 1.27}
{"variant": "U8C U10C U11G C12U C13G", "aptazyme ON/OFF ratio": 1.28}
{"variant": "U7A U8G G9C U11A C12U C13U", "aptazyme ON/OFF ratio": 1.46}
{"variant": "U7A U8C G9C U10C C12A", "aptazyme ON/OFF ratio": 1.03}
{"variant": "U7G U8C U10G U11G C12A C13U", "aptazyme ON/OFF ratio": 1.29}
{"variant": "U7G U8C U10G U11G C12U C13U", "aptazyme ON/OFF ratio": 1.34}
{"variant": "G9C", "aptazyme ON/OFF ratio": 1.06}
{"variant": "U8A U11C C13G", "aptazyme ON/OFF ratio": 1.08}
{"variant": "U7G U10G C12A C13U", "aptazyme ON/OFF ratio": 1.34}
{"variant": "U10C C12A C13G", "aptazyme ON/OFF ratio": 1.19}
{"variant": "U7C U8G G9A U10G U11A C12G C13U", "aptazyme ON/OFF ratio": 1.42}
{"variant": "U8A G9U C12U C13U", "aptazyme ON/OFF ratio": 1.36}
{"variant": "U7C U8C G9A U11C C12U C13U", "aptazyme ON/OFF ratio": 1.18}
{"variant": "U7G U8G G9C U10C U11A C12U C13G", "aptazyme ON/OFF ratio": 1.32}
{"variant": "U7A U8C G9C U10A C12G C13A", "aptazyme ON/OFF ratio": 1.1}
{"variant": "G9C U10A U11C C12A", "aptazyme ON/OFF ratio": 1.48}
{"variant": "U7G U8C G9A U10G C12G C13U", "aptazyme ON/OFF ratio": 1.15}
{"variant": "G9C U11C C13U", "aptazyme ON/OFF ratio": 1.04}
{"variant": "U7G U8G G9U U10C U11A C13U", "aptazyme ON/OFF ratio": 1.23}
{"variant": "U7C U8G G9A U10C U11A C12G C13A", "aptazyme ON/OFF ratio": 1.07}
